According to patent publication US20250144178A1, “PHARMACEUTICAL COMPOSITION FOR CANCER TREATMENT COMPRISING FUSION PROTEIN INCLUDING IL-12 AND ANTI-FAP ANTIBODY AND ANTICANCER AGENT” (KANAPH THERAPEUTICS INC., priority 2022, published 2025):

T1: recombinant mouse FAP (Mus musculus, UniProt P97321)
T1 sequence (P97321 1-761): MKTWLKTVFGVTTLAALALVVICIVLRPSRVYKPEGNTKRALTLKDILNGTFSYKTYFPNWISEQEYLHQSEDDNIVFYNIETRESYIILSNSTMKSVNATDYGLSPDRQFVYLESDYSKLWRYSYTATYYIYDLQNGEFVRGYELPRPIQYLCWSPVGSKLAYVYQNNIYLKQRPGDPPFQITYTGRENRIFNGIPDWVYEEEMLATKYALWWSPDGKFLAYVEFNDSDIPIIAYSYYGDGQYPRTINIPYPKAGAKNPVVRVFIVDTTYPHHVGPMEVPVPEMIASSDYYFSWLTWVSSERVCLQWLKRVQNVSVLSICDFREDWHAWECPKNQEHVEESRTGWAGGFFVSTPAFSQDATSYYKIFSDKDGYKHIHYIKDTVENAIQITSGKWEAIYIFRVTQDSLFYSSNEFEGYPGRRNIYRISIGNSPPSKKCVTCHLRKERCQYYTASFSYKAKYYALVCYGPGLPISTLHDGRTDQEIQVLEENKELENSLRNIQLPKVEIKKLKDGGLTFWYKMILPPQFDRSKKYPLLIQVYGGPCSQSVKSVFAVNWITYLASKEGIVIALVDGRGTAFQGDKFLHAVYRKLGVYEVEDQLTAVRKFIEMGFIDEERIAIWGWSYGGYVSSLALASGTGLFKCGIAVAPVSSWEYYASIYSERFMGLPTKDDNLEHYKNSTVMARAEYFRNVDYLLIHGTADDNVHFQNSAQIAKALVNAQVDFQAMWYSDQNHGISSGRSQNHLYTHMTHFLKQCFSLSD

B1: T1.02m: K&H bispecific: anti-mu FAP/mu IL-12 mut1, mu IgG2a DANG (seq18, seq19, seq21) (antibody)
heavy: QVQLQQSGAELARPGASVNLSCKASGYTFTNNGINWLKQRTGQGLEWIGEIYPRSTNTLYNEKFKGKATLTADRSSNTAYMELRSLTSEDSAVYFCARTLTAPFAFWGQGTLVTVSAAKTTAPSVYPLAPVCGDTTGSSVTLGCLVKGYFPEPVTLTWNSGSLSSGVHTFPAVLQSDLYTLSSSVTVTSSTWPSQSITCNVAHPASSTKVDKKIEPRGPTIKPCPPCKCPAPNLLGGPSVFIFPPKIKDVLMISLSPIVTCVVVAVSEDDPDVQISWFVNNVEVHTAQTQTHREDYGSTLRVVSALPIQHQDWMSGKEFKCKVNNKDLPAPIERTISKPKGSVRAPQVYVLPPPEEEMTKKQVTLWCMVTDFMPEDIYVEWTNNGKTELNYKNTEPVLDSDGSYFMYSKLRVEKKNWVERNSYSCSVVHEGLHNHHTTKSFSRTPGK
light: QIVLTQSPAIMSASPGEKVTMTCSASSGVNFMHWYQQKSGTSPKRWIFDTSKLASGVPARFSGSGSGTSYSLTISSMEAEDAATYYCQQWSFNPPTFGGGTKLEIKRADAAPTVSIFPPSSEQLTSGGASVVCFLNNFYPKDINVKWKIDGSERQNGVLNSWTDQDSKDSTYSMSSTLTLTKDEYERHNSYTCEATHKTSTSPIVKSFNRNEC
chain: MWELEKDVYVVEVDWTPDAPGETVNLTCDTPEEDDITWTSDQRHGVIGSGKTLTITVKEFLDAGQYTCHKGGETLSHSHLLLHKKENGIWSTEILKNFKNKTFLKCEAPNYSGRFTCSWLVQRNMDLKFNIKSSSSSPDSRAVTCGMASLSAEKVTLDQRDYEKYSVSCQEDVTCPTAEETLPIELALEARQQNKYENYSTSFFIRDIIKPDPPKNLQMKPLKNSQVEVSWEYPDSWSTPHSYFSLKFFVRIQRAKEKMAETEEGCNQKGAFLVEKTSTEVQCKGGNVCVQAQDRYYNSSCSKWACVPCRVRSGGGGSGGGGSGGGGSRVIPVSGPARCLSQSRNLLKTTDDMVKTAREKLKHYSCTAEDIDHEDITRDQTSTLKTCLPLELHKNESCLATRETSSTTRGSCLPPQKTSLMMTLCLGSIYEDLKMYQTEFQAINAALQNHNHQQIILDKGMLVAIDELMQSLNHNGETLRQKPPVGEADPYRVKMKLCILLHAFSTRVVTINRVMGYLSSAGGGGSGGGGSEPRGPTIKPCPPCKCPAPNLLGGPSVFIFPPKIKDVLMISLSPIVTCVVVAVSEDDPDVQISWFVNNVEVHTAQTQTHREDYGSTLRVVSALPIQHQDWMSGKEFKCKVNNKDLPAPIERTISKPKGSVRAPQVYVLPPPEEEMTKKQVTLSCAVTDFMPEDIYVEWTNNGKTELNYKNTEPVLDSDGSYFMVSKLRVEKKNWVERNSYSCSVVHEGLHNHHTTKSFSRTPGK
B2: T1.12m: K&H: anti-mu FAP/null, mu IgG2a DANG (seq18, seq19, seq29); used as control (antibody)
heavy: B1 heavy
light: B1 light
chain: EPRGPTIKPCPPCKCPAPNLLGGPSVFIFPPKIKDVLMISLSPIVTCVVVAVSEDDPDVQISWFVNNVEVHTAQTQTHREDYGSTLRVVSALPIQHQDWMSGKEFKCKVNNKDLPAPIERTISKPKGSVRAPQVYVLPPPEEEMTKKQVTLSCAVTDFMPEDIYVEWTNNGKTELNYKNTEPVLDSDGSYFMVSKLRVEKKNWVERNSYSCSVVHEGLHNHHTTKSFSRTPGK

Legend:
recombinant mouse FAP = target: T1, recombinant mouse FAP; experiment: Surface plasmon resonance binding to recombinant mouse FAP; settings: SPR, 2 μg/ml protein, FIGS. 13 and 14
Protocol: The surface of the CM5 chip was activated with a 1:1 mixture of […] (N-hydroxysuccinimide) and […] (1-Ethyl-3-(3-dimethylaminopropyl) carbodiimide), and 25 μg/ml of anti-mouse IgG (Fc) antibody was immobilized for 400 seconds at a rate of 10 μl/min. The remaining active ester groups were blocked with 1 M ethanolamine. T1.01m, T1.02m and T1.03m were diluted to 2 μg/ml and reacted on the CM5 chip immobilized with the anti-mouse IgG (Fc) antibody. The recombinant mouse FAP was diluted to 200 nM in 1×HBS-EP+buffer solution and diluted by serial dilution. The diluted recombinant mouse FAP was reacted at a rate of 30 μl/min. The association and dissociation times were 180 seconds and 400 seconds, respectively. After the dissociation, stabilization was performed for 60 seconds, and then a regeneration was performed for 30 seconds with a 10 mM glycine pH 1.5 solution at a rate of 30 μl/min.

[1] = test system: FAP-overexpressing mouse colorectal cancer CT26; experiment: Tumor growth inhibition by IL-12 mutation, FAP-overexpressing CT26, single i.v. dose; assay type: in vivo, BALB/c mice; settings: 10 μg i.v. once, 15 days after administration, control PBS, FIG. 28
Protocol: In order to evaluate the change in IL-12 activity according to the presence and extent of amino acid mutation, FAP-overexpressing mouse colorectal cancer CT26 was prepared by resuspending in PBS at a concentration of 5×10^5 cells/100 μl, and the tumor growth inhibitory ability was evaluated in a tumor animal model prepared by transplantation of the cells into 5-week-old female BALB/c mice.
Specifically, when the size of the tumor in the model reached 100 mm^3, the mice were randomly divided into groups. 100 μl of phosphate buffered saline (PBS) was administered once via tail vein injection of the control, and each of T1.01m, T1.02m and T1.03m was intravenously administered once at a dose of 10 μg.

HEK-Blue IL-12 cells = experiment: Signaling ability in IL-12 recognizing cells (STAT4 inducible SEAP reporter); assay type: cell-based, human; settings: serial dilution from 4 nM, 24 hours, FIG. 18
Protocol: The HEK-Blue IL-12 cell line transformed with the IL-12 receptor gene and the STAT4 inducible SEAP reporter gene into HEK293 cells, which are human embryonic kidney fibroblasts, was obtained from Invivogen (San Diego, USA). The HEK-Blue IL-12 cells were maintained in DMEM (GIBCO) containing 10% FBS (GIBCO), 100 μg/ml Normocin and 1×HEK-Blue selection.
Specifically, the HEK-Blue IL-12 cell line, which is an IL-12 recognizing cell, was diluted to 2.8×10^5 cells/ml and dispensed at 180 μl/well. Recombinant human IL-12, T1.01m, T1.02m, T1.03m and T1.12m were suspended at 4 nM and diluted by serial dilution. HEK-Blue IL-12 cells were treated with the diluted recombinant human IL-12, T1.01m, T1.02m, T1.03m and T1.12m. After 24 hours of treatment, the cell supernatant was collected and mixed with QUANTI-Blue Solution (Invivogen) in a 96-well plate. The reporter expression level was measured at 620 nm using a spectrophotometer (Thermo Fisher).

[2] = test system: FAP-overexpressing CT26 cells; experiment: Tumor growth inhibition, FAP-overexpressing CT26 model, repeated i.p. dosing; assay type: in vivo, BALB/c mice; settings: 18 days after administration, control 50 μg T1.24m
Protocol: In order to prepare an mouse FAP-expressing tumor animal model, FAP overexpression was induced in CT26, a mouse colorectal cancer cell line. Specifically, the FAP-overexpressing CT26 cells in culture were resuspended in Hanks' Balanced salt solution (HBSS, Gibco), and then each 100 μl of 1×10^6 tumor cells per each mouse was transplanted into the subcutaneous region of the left dorsal side of 6-week-old BALB/c mice using a 1 cc syringe (25G) to obtain a mouse FAP-expressing colorectal cancer animal model. The tumor size was measured using a digital vernier caliper by measuring the short axis and long axis of the tumor, and the tumor size was measured twice a week using the calculation formula of (short axis, mm) 2×(long axis, mm)×0.5.
Next, for drug efficacy evaluation, when the size of the tumor reached 100 mm^3, the mice were randomly divided into groups. Each experimental group consisted of 8 animals, and as a control, each 100 μl of 50 μg of T1.24m was intraperitoneally administered four times at an interval of 3 days. In the test group, each 100 μl of 10 μg and 100 μg of T1.01m, and 2 μg, 10 μg and 100 μg of T1.02m, respectively, were intraperitoneally administered four times at an interval of 3 days to evaluate the tumor growth inhibitory ability.

[3] = test system: CT26 colorectal cancer with mouse FAP overexpressing NIH-3T3 cells; experiment: Tumor growth inhibition, CT26 co-injected with mouse FAP overexpressing NIH-3T3; assay type: in vivo, BALB/c mice; settings: for tumor growth inhibitory ability compared to control: 14th day, control 50 μg T1.24m
Protocol: Specifically, the mouse FAP overexpressing NIH-3T3 cells and the CT26 cells in culture were resuspended in Hanks' Balanced salt solution (HBSS, Gibco) at a concentration of 1×10^6 cells/50 μl, respectively, and the cells were mixed in a 1:1 ratio, and then 100 μl per each mouse was transplanted into the subcutaneous region of the right flank of 6-week-old BALB/c mice using a 1 cc syringe (25G) to obtain an FAP-expressing fibroblast co-injection animal model. The tumor size was measured using a digital vernier caliper by measuring the short axis and long axis of the tumor, and the tumor size was measured twice a week using the calculation formula of (short axis, mm) 2×(long axis, mm)×0.5.
Next, for drug efficacy evaluation, when the size of the tumor reached 100 mm^3, the mice were randomly divided into groups. Each experimental group consisted of 10 animals, and as a control, each 100 μl of 50 μg of T1.24m was intraperitoneally administered three times at an interval of 3 days. In the test group, each 100 μl of 10 μg and 50 μg of T1.02m and 50 μg of T1.01m, respectively, were intraperitoneally administered three times at an interval of 3 days to evaluate the tumor growth inhibitory ability.

Row | Molecule | Binding to recombinant mouse FAP (recombinant mouse FAP) | tumor growth inhibitory ability compared to the control [1] | IL-12 recognition / STAT4 reporter gene expression (620 nm absorbance) (HEK-Blue IL-12 cells) | tumor growth inhibitory ability compared to control ([2]; 2 μg i.p. four times at an interval of 3 days) | tumor growth inhibitory ability compared to control ([2]; 10 μg i.p. four times at an interval of 3 days) | tumor growth inhibitory ability compared to control ([2]; 100 μg i.p. four times at an interval of 3 days) | tumor growth inhibitory ability compared to control ([3]; 10 μg i.p. three times at an interval of 3 days) | tumor growth inhibitory ability compared to control ([3]; 50 μg i.p. three times at an interval of 3 days) | complete response ([3]; 24th day after administration, FIG. 24)
1 | B1 | may bind to recombinant mouse FAP to specifically target FAP | excellent tumor growth inhibitory ability | IL-12 was recognized, and STAT4 expressed a reporter gene by inducing phosphorylation | 80.1% | 90.5% | 89.8% | 93.2% | 92.7% | subjects in complete response were observed
2 | B2 | – | – | did not recognize IL-12 | – | – | – | – | – | –
